Laboratory results: patent US20170183415A1 (published 2017)
One block for each binder: values may come before it.

Experiments:
immobilized CD123 [1] = target: T1, immobilized CD123 (UniProt P26951 19-305); experiment: ELISA; FIG. 30A
T1 chain: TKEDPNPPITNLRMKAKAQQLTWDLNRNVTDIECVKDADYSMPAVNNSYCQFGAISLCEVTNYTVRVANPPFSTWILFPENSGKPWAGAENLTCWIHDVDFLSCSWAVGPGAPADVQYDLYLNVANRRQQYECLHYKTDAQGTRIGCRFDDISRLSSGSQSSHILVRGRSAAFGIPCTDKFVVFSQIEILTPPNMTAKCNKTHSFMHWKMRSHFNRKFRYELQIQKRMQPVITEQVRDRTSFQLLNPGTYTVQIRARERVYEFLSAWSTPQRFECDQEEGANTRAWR

immobilized CD123 [2] = target: T1, immobilized CD123; experiment: ELISA; FIG. 30B
CD123_BC = experiment: ELISA; FIG. 30B
CD123_BD = experiment: ELISA; FIG. 30A
CD123_AC = experiment: ELISA; FIG. 30A
CD123_AD = experiment: ELISA; FIG. 30A
CD123_DA = experiment: ELISA; FIG. 30A
CD123_CA = experiment: ELISA; FIG. 30A

- Kd (immobilized CD123 [1]): 2.56 nM
- Kd (immobilized CD123 [2]): 1.04 nM
B1: parent mouse scFv (anti-CD123, clone 32716) (scFv)
scFv: DIVLTQSPASLAVSLGQRATISCRASESVDNYGNTFMHWYQQKPGQPPKLLIYRASNLESGIPARFSGSGSRTDFTLTINPVEADDVATYYCQQSNEDPPTFGAGTKLELKGGGGSGGGGSSGGGSQIQLVQSGPELKKPGETVKISCKASGYIFTNYGMNWVKQAPGKSFKWMGWINTYTGESTYSADFKGRFAFSLETSASTAYLHINDLKNEDTATYFCARSGGYDPMDYWGQGTSVTVSS

- Kd (CD123_BC): 3.25 nM
- Kd (CD123_BD): 1.12 nM
- Kd (CD123_AC): 1.83 nM
- Kd (CD123_AD): 1.77 nM
- Kd (CD123_DA): 2.8 nM
- Kd (CD123_CA): 10.2 nM
B2: CD123 (receptor)
chain: T1 chain
